Reference: patent publication US20240301022A1 (published 2024)

Target: human β1-adrenergic receptor (human, UniProt P08588 1-477)
Test: radioligand saturation binding, transfected CHO-K1

Sequence of human β1-adrenergic receptor (P08588 whole entry): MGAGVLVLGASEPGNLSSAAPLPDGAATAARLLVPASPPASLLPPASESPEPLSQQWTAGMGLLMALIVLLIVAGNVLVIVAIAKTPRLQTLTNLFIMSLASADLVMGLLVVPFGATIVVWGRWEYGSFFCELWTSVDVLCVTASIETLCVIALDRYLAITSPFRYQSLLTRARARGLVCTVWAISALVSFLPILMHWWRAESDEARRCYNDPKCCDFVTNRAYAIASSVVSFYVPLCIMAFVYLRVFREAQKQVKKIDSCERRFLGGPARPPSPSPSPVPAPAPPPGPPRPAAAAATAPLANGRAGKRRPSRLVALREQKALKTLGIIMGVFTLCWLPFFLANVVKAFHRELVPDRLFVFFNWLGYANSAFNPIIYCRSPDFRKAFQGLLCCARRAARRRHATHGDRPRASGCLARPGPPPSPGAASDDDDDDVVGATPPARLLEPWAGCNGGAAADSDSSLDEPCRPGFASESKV

B1: recombinant human zinc-α2-glycoprotein (ZAG) (ligand)
chain: QENQDGRYSLTYIYTGLSKHVEDVPAFQALGSLNDLQFFRYNSKDRKSQPMGLWRQVEGMEDWKEDSQLQKAREDMETLKDIVEYYNDSNGSHVLQGRFGCEIENNRSSGAFWKYYYDGKDYIEFNKEIPAWVPFDPAAQITKQKWEAEPVYVQRAKAYLEEECPATLRKYLKYSKNILDRQDPPSVVVTSHQAPGEKKKLKCLAYDFYPGKIDVHWTRAGQVQEPELRGDVLHNGNGTYQSWVVVAVPPQDTAPYSCHVQHSSLAQPLVVPWEAS
modifications: 125I label (iodo bead labelling) in the membrane binding studies; labelled residues not stated
How did the Kd turn out when B1 was run?
The Kd was 493 nM.
